Experiment [1] addresses T1, FcγRI.
T1 construct: also called FcgRI; CD64
The experiment can be described thus: surface plasmon resonance; FcγRI immobilized (1000 µRIU), CRP injected at 42, 84, 169 and 338 nM. As to the method: FcγRI (1000 μRIU) were immobilized CRP was injected @ 42 nM, 84 nM, 169 nM and 338 nM. Data are recorded as resonance units over time after injection.

The target in experiment [2] is T2, recombinant human FcγRI from R&D Systems (Cat#1257-FC-050) (human, UniProt P12314 16-292).
T2 construct: extracellular domain; Bought reagent; also called CD64
T2 sequence (P12314 16-292): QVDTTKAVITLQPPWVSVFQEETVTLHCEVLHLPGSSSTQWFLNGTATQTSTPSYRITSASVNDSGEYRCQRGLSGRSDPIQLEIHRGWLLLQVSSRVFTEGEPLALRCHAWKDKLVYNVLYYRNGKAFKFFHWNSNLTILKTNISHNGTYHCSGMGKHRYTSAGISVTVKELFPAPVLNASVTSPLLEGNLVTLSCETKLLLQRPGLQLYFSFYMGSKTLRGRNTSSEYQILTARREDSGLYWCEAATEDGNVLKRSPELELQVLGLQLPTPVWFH
Description: ELISA, recombinant human FcγRI. A general note: In an ELISA, binding on a coated surface is turned into a signal by an enzyme label.

T1 sequence (P12314 16-292): as above

B1: C-reactive protein (CRP) (ligand)
chain: QTDMSRKAFVFPKESDTSYVSLKAPLTKPLKAFTVCLHFYTELSSTRGYSIFSYATKRQDNEILIFWSKDIGYSFTVGGSEILFEVPEVTVAPVHICTSWESASGIVEFWVDGKPRVRKSLKKGYTVGAEASIILGQEQDSFGGNFEGSQSLVGDIGNVNMWDFVLSPDEINTIYLGGPFSPNVLNWRALKYEVQGEVFTKPQLWP
notes: also called human CRP
For orientation: Kd means the constant that tells how readily two partners part at equilibrium. A high value points to a looser complex. With B1, the Kd in experiment [1] turned out to be 183 nM. The binding result in experiment [2] is listed as “binds”.
